Data taken from patent US20240317847A1 (Bayer, published 2024).
Residue numbers refer to the chain shown, from its start. Where two headings read alike, the source gives them in different places.

B1: TPP-31286 (antibody, IgG4, V domains shown)
VH: QVQLLESGGGLVQPGGSLRLSCAASGFTFSHYDMNWLRQAPGKGLEWVGVISYDGSNKFYADFVKGRFTISRDNSKNTLYLQMNSLRAEDTAVYYCARTPGSHFDYWGQGTLVTVSS
VL: QSVLTQPPSASGTPGQRVTISCSGSSSNIGNNAVNWYQQLPGTAPKLLIYYDDLLPSGVPDRFSGSKSGTSASLAISGLRSEDEADYYCSAWDDSLNGVVFGGGTKLTVL
B2: TPP-31288 (antibody, IgG4, V domains shown)
VH: B1 VH with Q1E, L11V
VL: B1 VL
B3: TPP-31287 (antibody, IgG4, V domains shown)
VH: B1 VH with Q1E, L5V
VL: B1 VL
B4: TPP-27155 (antibody, V domains shown)
VH: EVQLLESGGGLVQPGGSLRLSCAASGFTFSSYGMHWVRQAPGKGLEWVSVISYDGSYKYYADSVKGRFTISRDNSKNTLYLQMNSLRAEDTAVYYCAAGVPDYWGQGTLVTVSS
VL: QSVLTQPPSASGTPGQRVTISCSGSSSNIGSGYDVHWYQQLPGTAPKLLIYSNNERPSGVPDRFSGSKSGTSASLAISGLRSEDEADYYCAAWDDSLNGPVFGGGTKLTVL
B5: TPP-27159 (antibody, human IgG1, lambda, V domains shown)
VH: B4 VH with S49A
VL: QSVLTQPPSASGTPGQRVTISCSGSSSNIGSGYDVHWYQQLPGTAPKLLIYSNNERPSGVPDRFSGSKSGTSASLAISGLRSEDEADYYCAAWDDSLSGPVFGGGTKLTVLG
notes: hIgG1, Lambda
B6: TPP-27157 (antibody, V domains shown)
VH: B4 VH with S49A
VL: QSVLTQPPSASGTPGQRVTISCTGSSSNIGAGYDVHWYQQLPGTAPKLLIYSNNERPSGVPDRFSGSKSGTSASLAISGLRSEDEADYYCAAWDDSLSGPVFGGGTKLTVL
B7: TPP-27158 (antibody, V domains shown)
VH: B4 VH with S49A
VL: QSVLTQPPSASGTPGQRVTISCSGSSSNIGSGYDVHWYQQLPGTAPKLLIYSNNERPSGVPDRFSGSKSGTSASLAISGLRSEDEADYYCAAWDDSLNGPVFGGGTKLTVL
B8: TPP-27163 (antibody, V domains shown)
VH: B4 VH with S49A
VL: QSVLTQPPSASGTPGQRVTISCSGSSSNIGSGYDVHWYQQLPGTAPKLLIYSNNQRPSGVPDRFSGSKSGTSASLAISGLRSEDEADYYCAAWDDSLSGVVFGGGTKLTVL
B9: TPP-27162 (antibody, V domains shown)
VH: B4 VH with S49A
VL: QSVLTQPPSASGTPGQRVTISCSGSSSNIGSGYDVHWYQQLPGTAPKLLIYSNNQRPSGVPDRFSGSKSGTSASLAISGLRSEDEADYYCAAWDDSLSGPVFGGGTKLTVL
B10: TPP-27156 (antibody, V domains shown)
VH: B4 VH with S49A
VL: B6 VL with S98N
B11: TPP-27160 (antibody, V domains shown)
VH: B4 VH with S49A
VL: B6 VL with T23S, A31S, S52D
B12: TPP-23552 (antibody, human IgG1, kappa)
heavy: not shown
light: DIVLTQSPASLALSPGERATLSCRASKSVSTSGYSYIHWYQQKPGQPPRLLIYLASNLDSGVPARFSGSGSGTDFTLNIHPLEEEDFATYYCQHSRDLPPTFGQGTKLEIKRTVAAPSVFIFPPSDEQLKSGTASVVCLLNNFYPREAKVQWKVDNALQSGNSQESVTEQDSKDSTYSLSSTLTLSKADYEKHKVYACEVTHQGLSSPVTKSFNRGEC
notes: hIgG1, Kappa; also called BSN 3C6 (WO2019238882)

Columns and labels:
human IL-11 [1] = biological target: T1, human IL-11 (human, UniProt P20809 22-199); test: cell-based or functional assay
T1 sequence: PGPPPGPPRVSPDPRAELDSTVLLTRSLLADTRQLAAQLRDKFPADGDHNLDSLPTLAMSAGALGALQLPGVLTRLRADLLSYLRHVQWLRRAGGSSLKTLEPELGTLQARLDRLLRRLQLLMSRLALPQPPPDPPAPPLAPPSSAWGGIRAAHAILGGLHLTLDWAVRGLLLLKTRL

murine IL-11 [2] = biological target: T2, murine IL-11 (mouse, UniProt P47873 22-199); test: cell-based or functional assay
T2 sequence: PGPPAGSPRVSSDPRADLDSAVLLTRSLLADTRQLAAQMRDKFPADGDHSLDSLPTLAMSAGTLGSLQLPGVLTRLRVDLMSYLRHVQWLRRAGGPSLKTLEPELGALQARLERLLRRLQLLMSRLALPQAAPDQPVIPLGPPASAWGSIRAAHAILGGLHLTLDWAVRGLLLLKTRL

human IL-11 [3] = biological target: T1, human IL-11; test: cell-based or functional assay; remark: listed apart in the source
murine IL-11 [4] = biological target: T2, murine IL-11; test: cell-based or functional assay; remark: listed apart in the source
human IL-11 [5] = biological target: T1, human IL-11; test: cell-based or functional assay; remark: listed apart in the source
murine IL-11 [6] = biological target: T2, murine IL-11; test: cell-based or functional assay; remark: listed apart in the source
human IL-11 [7] = biological target: T1, human IL-11; test: SPR, antibody captured, IL-11 as analyte
Description: (§1) Antibodies were captured via anti-mouse Fc IgGs (“Mouse antibody capture kit, Order No. BR100383, Cytiva) covalently amine coupled to a Series S CM5 sensor chip (Cytiva). The amine coupling was carried out according to the manufacturer's instructions using 1-ethyl-3-(3-dimethylaminopropyl) carbodiimide hydrochloride (EDC), N-hydroxysuccinimide (NHS) and ethanolamine HCl, pH 8.5 (“Amine Coupling Kit” BR-1000-50, Cytiva.). Human IL-11 (Invigate, e.g., lot #C121021-19), and murine IL-11 (Invigate, e.g., lot #C210819-09) were used as analytes. […] Based on that experiment an IL-11 concentration range was chosen to optimally determine kinetics and affinity of anti-IL-11 antibodies in multicycle kinetics mode. The sensor surface was regenerated with glycine pH 1.7 after each antigen injection. Obtained sensorgrams were double referenced (subtraction of reference flow cell signal and buffer injection) and were fitted to a 1:1 Langmuir binding model to derive kinetic data using the Biacore T200 Evaluation software or the Biacore Insight software.
(§2) For the 2nd round of germlining, single reversions were then combined on DNA level, expressed and purified as described in Example 15, and tested by SPR as described in Example 16.

murine IL-11 [8] = biological target: T2, murine IL-11; test: SPR, antibody captured, IL-11 as analyte
Description: as §1, §2

human IL-11 [9] = biological target: T3, human IL-11 (human, UniProt P20809 22-199); test: cell-based or functional assay; remark: listed apart in the source
T3 sequence: T1 sequence

murine IL-11 [10] = biological target: T4, murine IL-11 (mouse, UniProt P47873 22-199); test: cell-based or functional assay; remark: listed apart in the source
T4 sequence: T2 sequence

human IL-11 [11] = biological target: T3, human IL-11; test: cell-based or functional assay; remark: listed apart in the source
murine IL-11 [12] = biological target: T4, murine IL-11; test: cell-based or functional assay; remark: listed apart in the source
cynomolgus IL-11 = biological target: T5, cynomolgus IL-11 (cynomolgus, UniProt P20808 22-199); test: cell-based or functional assay
T5 sequence: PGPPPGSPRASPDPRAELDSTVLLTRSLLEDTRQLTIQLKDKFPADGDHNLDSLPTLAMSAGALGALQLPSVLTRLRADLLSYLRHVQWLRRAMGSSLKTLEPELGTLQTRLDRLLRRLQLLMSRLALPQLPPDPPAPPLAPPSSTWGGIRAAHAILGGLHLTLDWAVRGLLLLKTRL

rat IL-11 = biological target: T6, rat IL-11 (rat, UniProt Q99MF5 22-199); test: cell-based or functional assay
T6 sequence: T2 sequence with S50N, L84F, G94A, V137A, I138V

human IL-11 [13] = biological target: T3, human IL-11; test: Tri-complex ELISA, hIL-11 + mIL-11Ra-Fc + hgp130-Fc, inhibition of complex formation
Description: In the Tri-complex ELISA format IL-11 antibodies are tested for their ability to inhibit the formation of a complex consisting of murine or human gp130-Fc fusion protein, with murine or human IL-11, and a murine IL11RA-Fc fusion protein. The assay format was adapted according to FIG. 18 (a, b), depending on whether murine or human IL-11 IgG antibodies were tested.
(§3) IgG converted antibodies were subjected to the experimental assay procedure described in Example 19 and IC50 [M], respectively efficacy (%) were calculated accordingly.

murine IL-11 [14] = biological target: T4, murine IL-11; test: Tri-complex ELISA, mIL-11 + mIL-11Ra-Fc + mgp130-Fc, inhibition of complex formation
Description: In a first step, 25 μl of goat anti human IgG (Sigma, #12136), diluted 1:1000 in coating buffer (Candor, #121125) was coated on the plate at 4° C. overnight. Next day, the plate was washed one time with 50 μl PBST and then blocked with 50 μl SmartBlock (Candor, #113125) for one hour at room temperature (RT). […] After three additional washes of the coated and blocked microtiter plate with PBS-T, 25 μl of each mixture were added and the assay plate was incubated for one hour at room temperature. After three additional washes, anti-mouse-gp130 biotinylated antibody (R&D, #BAF468) or anti-human gp130 biotinylated antibody (R&D, #BAF228), both 1:1000 in 10% SmartBlock PBS-T, was added and incubated for 1 hour at RT. After three additional washes, a Streptavidin-Peroxidase conjugate (Sigma, #S5512) 1:1000 in SmartBlock PBS-T was added and incubated for one hour at room temperature. After a final three washes, AmplexRed (Fisher Scientific, A12222), 1/1000 in PBS, 0,003% H₂O₂, was added as substrate and incubated for 15 min at RT in the dark. Then, the fluorescence was measured with a plate reader at 535/595 nm. Signals from dose responses were used to calculate IC50 values using GraphPad Prism software. Efficacy was calculated as [(signal measured at lowest antibody concentration−signal measured at the highest antibody concentration)×100] divided by (signal measured at lowest antibody concentration−signal measured in the absence of antibody at an IL11 concentration of 8.2E-11 [M]).
as §3

| Binder | Efficacy (%), RGA (human IL-11 [5]) [%] | IC50, RGA (human IL-11 [5]) [nM] | Efficacy (%), RGA (murine IL-11 [6]) [%] | IC50, RGA (murine IL-11 [6]) [nM] | Kd (human IL-11 [7]) [nM] | Kd (murine IL-11 [8]) [nM] | further results |
| --- | --- | --- | --- | --- | --- | --- | --- |
| B1 | – | – | – | – | – | – | RGA potency (mean) (human IL-11 [1]): < 170 nM; RGA potency (mean) (murine IL-11 [2]): < 170 nM; IC50, RGA 1 (human IL-11 [3]): 59 nM; IC50, RGA 2 (human IL-11 [3]): 37 nM; IC50, RGA 1 (murine IL-11 [4]): 18 nM; IC50, RGA 2 (murine IL-11 [4]): 13 nM |
| B2 | – | – | – | – | – | – | RGA potency (mean) (human IL-11 [1]): < 170 nM; RGA potency (mean) (murine IL-11 [2]): < 170 nM; IC50, RGA 1 (human IL-11 [3]): 67 nM; IC50, RGA 2 (human IL-11 [3]): 141 nM; IC50, RGA 1 (murine IL-11 [4]): 47 nM; IC50, RGA 2 (murine IL-11 [4]): 23 nM |
| B3 | – | – | – | – | – | – | RGA potency (mean) (human IL-11 [1]): < 170 nM; RGA potency (mean) (murine IL-11 [2]): < 170 nM; IC50, RGA 1 (human IL-11 [3]): 127 nM; IC50, RGA 2 (human IL-11 [3]): 56 nM; IC50, RGA 1 (murine IL-11 [4]): 41 nM; IC50, RGA 2 (murine IL-11 [4]): 15 nM |
| B4 | 56.5 | 20 | 94.3 | 1.1 | 5.8 | 0.65 | – |
| B5 | 43.2 | 19 | 82.4 | 1.9 | 5.4 | 1.1 | – |
| B6 | 51.2 | 13 | 86.4 | 1.4 | 5.1 | 1.1 | – |
| B7 | 55.8 | 20 | 89.9 | 1.4 | 5.9 | 0.4 | – |
| B8 | 2.9 | – | 52.3 | 52 | 12 | 28 | – |
| B9 | 36 | 91 | 77.6 | 3.3 | 7.4 | 3.2 | – |
| B10 | 50.4 | 15 | 90.6 | 1.2 | 6.6 | 0.45 | – |
| B11 | -2.8 | – | 63.8 | 10 | 180 | 56 | – |
| B12 | – | – | – | – | – | – | Efficacy (%), Stat3 reporter gene assay (human IL-11 [9]): 87.9%; IC50, Stat3 reporter gene assay (human IL-11 [9]): 18 nM; Efficacy (%), Stat3 reporter gene assay (murine IL-11 [10]): 76%; IC50, Stat3 reporter gene assay (murine IL-11 [10]): 22 nM; Efficacy (%), Stat3 reporter gene assay (human IL-11 [11]): 76.7%; IC50, Stat3 reporter gene assay (human IL-11 [11]): 3.7 nM; Efficacy (%), Stat3 reporter gene assay (murine IL-11 [12]): 90.9%; IC50, Stat3 reporter gene assay (murine IL-11 [12]): 8.1 nM; Efficacy (%), Stat3 reporter gene assay (cynomolgus IL-11): 52.4%; Efficacy (%), Stat3 reporter gene assay (rat IL-11): 81.3%; IC50, Stat3 reporter gene assay (rat IL-11): 8.8 nM; Efficacy (%) (human IL-11 [13]): 90.6%; IC50 (human IL-11 [13]): 6.8 nM; Efficacy (%) (murine IL-11 [14]): 90.7%; IC50 (murine IL-11 [14]): 23 nM |
